From paper PMC9841404, “Werner syndrome protein works as a dimer for unwinding and replication fork regression” (Nucleic Acids Research, 2022) come the findings set out here.

Series [1] deals with the molecule itself. In words: single-molecule GFP photobleaching step counting (TIRF microscopy); immobilised forked DNA incubated with 24 nM GFP-tagged WRN and 1 nM RPA, unbound washed out; steps counted in the absence of ATP; only molecules with unwinding activity (Cy3-Cy5 FRET after 1 mM ATP-Mg2+) counted; room temperature.
Series [2] deals with the molecule itself. In words: single-molecule GFP photobleaching step counting (TIRF microscopy); real-time binding of GFP-tagged WRN to model replication fork immobilised via biotin-streptavidin; all bound molecules counted; no ATP; 10 mM Tris-HCl pH 8.0, 50 mM NaCl; room temperature; oligomer counted on DNA.

B1: GFP-tagged Werner syndrome protein (f:GFP-WRN) (enzyme)
chain: not shown
notes: Werner syndrome protein (WRN), human; cDNA encoding full-length WRN generated by RT-PCR from total RNA of HEK293T cells, subcloned into pFASTBAC1; Number of copies depends on the condition: dimer or tetramer on DNA (see measurements); also called GFP-tagged WRN; not shown: FLAG, N-terminal, kept; GFP, N-terminal, kept
Consider B1, for which the “stoichiometry N” value was found to be 2 in series [1] and 4 in series [2].

For orientation: stoichiometry N means the number of molecules, sites or subunits per partner or assembly.
